Patent US20140301990A1

Assays:
Assay in all cases: cell_activity
[1] = system: TALEN 101540 (engineered); details: pair with 101536, K562; 9.6 with 101537
[2] = system: TALEN 101539 (engineered); details: pair with 101536, K562; 0.0 with 101537
[3] = system: TALEN 101537 (engineered); details: pair with 101541, K562; 9.6 with 101540, 0.0 with 101539
[4] = system: TALEN 101513 (engineered); details: pair with 101516, K562; 5.9 with 101514, 8.3 with 101515
[5] = system: TALEN 101511 (engineered); details: pair with 101515, K562; 3.4 with 101514, 5.3 with 101516
[6] = system: TALEN 101512 (engineered); details: pair with 101516, K562; 5.3 with 101514, 8.9 with 101515
[7] = system: TALEN 101516 (engineered); details: pair with 101513, K562
[8] = system: TALEN 101515 (engineered); details: pair with 101512, K562
[9] = system: ZFN 22449 (TRBC) (engineered); details: pair with 16783, K562 day 3; 8.1 day 10
[10] = system: ZFN 16787 (TRBC) (engineered); details: pair with 16783, K562 day 3; 15.6 day 10; Table 6 8.73 TRBC1, 8.68 TRBC2
[11] = system: ZFN 22454 (TRBC) (engineered); details: pair with 16783, K562 day 3; 12.1 day 10
[12] = system: ZFN 22409 (TRBC) (engineered); details: pair with 16783, K562 day 10
[13] = system: TALEN 101536 (engineered); details: pair with 101541, K562; 8.5 with 101539, 9.9 with 101540
[14] = system: TALEN 101514 (engineered); details: pair with 101513, K562

CTGGGTCCACTCGTCATTC (double strand) [101540 site]
activity [1]: 9.9 % NHEJ

CTGGGTCCACTCGTCATTCT (double strand) [101539 site]
activity [2]: 8.5 % NHEJ

CTGTCAAGTCCAGTTCTA (double strand) [101537 site]
activity [3]: 9.9 % NHEJ

CTGTGGCCTGGAGCAACAA (double strand) [101513 site]
activity [4]: 16.4 % NHEJ

GTGCTGTGGCCTGGAGCAA (double strand) [101511 site]
activity [5]: 5.9 % NHEJ

GTGCTGTGGCCTGGAGCAAC (double strand) [101512 site]
activity [6]: 12 % NHEJ

GTTGAAGGCGTTTGCACATG (double strand) [101516 site]
activity [7]: 16.4 % NHEJ

GTTGAAGGCGTTTGCACATGC (double strand) [101515 site]
activity [8]: 8.9 % NHEJ

TCTCGGAGAATGACGAGTGGACCCAGGA (double strand) [TRBC 16787 site]
activity [9]: 20.1 % NHEJ | activity [10]: 12.1 % NHEJ | activity [11]: 17.7 % NHEJ | activity [12]: 14.7 % NHEJ

TTCCGCTGTCAAGTCCAGTTC (double strand) [101536 site]
activity [13]: 15 % NHEJ

TTGAAGGCGTTTGCACATGCA (double strand) [101514 site]
activity [14]: 5.9 % NHEJ
